From PMC9258321, “Structure-guided design of CPPC-paired disulfide-rich peptide libraries for ligand and drug discovery†” (Chemical Science, 2022)
Ends that are not written are not given here.

Target: T1, Kelch domain of Keap1
T1 construct: Keap1, Kelch domain; The Kelch domain is named for the phage selection; the SPR sentences say only 'Keap1'
Test: SPR; Keap1 with oxidized peptides, concentration-dependent
Conditions: both partners purified

- Kd: 153 nM
B1: drp5-a (peptide)
chain: CPPCHGRPTCDEETGECWELLTCPPC
modifications: disulfide (positions not given here); also: oxidized (disulfides), pairing of this isomer not given here
